Reference: patent US6511832

What was measured:
[1] = test system: LEF-4 L105F L105F (Autographa californica nuclear polyhedrosis virus); settings: 5'-triphosphate; RNA triphosphatase at nonpermissive temperature (33 C); equal to wild type at 25 C
[2] = target: baculovirus RNA polymerase complex (LEF-8/LEF-9/LEF-4/p47) (Autographa californica nuclear polyhedrosis virus) (UniProt P41452+P41465+P41477+P34051); settings: 5'-triphosphate; RNA 5'-triphosphatase turnover, 0.3 mM MnCl2, 30 C
[3] = test system: LEF-4 (Autographa californica nuclear polyhedrosis virus); settings: 5'-triphosphate; RNA 5'-triphosphatase turnover, 0.3 mM MnCl2, 30 C
[4] = test system: LEF-4 R51A R51A (Autographa californica nuclear polyhedrosis virus); settings: 5'-triphosphate; RNA triphosphatase
[5] = test system: LEF-4 E9/11A E9A,E11A (Autographa californica nuclear polyhedrosis virus); settings: 5'-triphosphate; RNA triphosphatase reduced 100-fold
[6] = test system: LEF-4 wild type (E. coli) (Autographa californica nuclear polyhedrosis virus); settings: 5'-triphosphate; RNA triphosphatase, 1 uM RNA

UniProt P41452, sequence (P41452 whole entry, chain 1 of 4): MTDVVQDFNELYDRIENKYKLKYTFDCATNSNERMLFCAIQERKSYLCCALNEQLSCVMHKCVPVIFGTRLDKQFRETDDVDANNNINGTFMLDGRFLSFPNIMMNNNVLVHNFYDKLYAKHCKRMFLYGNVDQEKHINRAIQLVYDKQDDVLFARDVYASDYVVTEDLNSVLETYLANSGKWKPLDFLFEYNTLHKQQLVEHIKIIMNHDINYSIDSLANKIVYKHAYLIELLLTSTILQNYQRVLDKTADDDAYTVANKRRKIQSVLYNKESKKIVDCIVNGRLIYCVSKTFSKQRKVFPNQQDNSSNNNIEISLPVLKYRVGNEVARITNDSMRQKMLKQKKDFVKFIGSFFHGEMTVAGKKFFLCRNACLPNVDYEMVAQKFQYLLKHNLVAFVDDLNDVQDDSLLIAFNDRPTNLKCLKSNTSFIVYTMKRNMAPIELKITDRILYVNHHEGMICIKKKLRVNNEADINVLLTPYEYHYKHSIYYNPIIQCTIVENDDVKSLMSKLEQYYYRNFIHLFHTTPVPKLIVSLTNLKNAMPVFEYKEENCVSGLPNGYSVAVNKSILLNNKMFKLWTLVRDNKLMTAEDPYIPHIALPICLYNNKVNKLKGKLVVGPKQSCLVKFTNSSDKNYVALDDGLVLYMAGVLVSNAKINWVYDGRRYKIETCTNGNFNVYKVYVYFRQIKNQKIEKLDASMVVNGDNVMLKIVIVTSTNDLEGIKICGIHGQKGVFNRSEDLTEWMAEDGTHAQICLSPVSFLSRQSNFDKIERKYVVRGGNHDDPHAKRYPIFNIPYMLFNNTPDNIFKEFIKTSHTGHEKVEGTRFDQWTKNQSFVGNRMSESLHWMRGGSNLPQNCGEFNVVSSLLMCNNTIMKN
UniProt P41452, sequence (P41465 whole entry, chain 2 of 4): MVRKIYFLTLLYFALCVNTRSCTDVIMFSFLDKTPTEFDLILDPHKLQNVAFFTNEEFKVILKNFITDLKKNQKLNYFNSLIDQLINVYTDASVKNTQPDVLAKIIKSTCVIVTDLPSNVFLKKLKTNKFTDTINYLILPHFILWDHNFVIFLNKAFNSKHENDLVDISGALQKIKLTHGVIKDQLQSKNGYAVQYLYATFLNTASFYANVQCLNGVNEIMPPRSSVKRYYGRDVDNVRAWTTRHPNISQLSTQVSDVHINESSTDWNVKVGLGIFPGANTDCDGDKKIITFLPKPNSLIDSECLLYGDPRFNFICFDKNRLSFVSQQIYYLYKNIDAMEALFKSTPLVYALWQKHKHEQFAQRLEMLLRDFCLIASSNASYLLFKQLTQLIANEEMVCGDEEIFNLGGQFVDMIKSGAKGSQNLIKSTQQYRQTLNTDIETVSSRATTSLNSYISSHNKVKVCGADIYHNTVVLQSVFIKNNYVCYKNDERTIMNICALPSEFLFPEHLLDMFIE
UniProt P41452, sequence (P41477 whole entry, chain 3 of 4): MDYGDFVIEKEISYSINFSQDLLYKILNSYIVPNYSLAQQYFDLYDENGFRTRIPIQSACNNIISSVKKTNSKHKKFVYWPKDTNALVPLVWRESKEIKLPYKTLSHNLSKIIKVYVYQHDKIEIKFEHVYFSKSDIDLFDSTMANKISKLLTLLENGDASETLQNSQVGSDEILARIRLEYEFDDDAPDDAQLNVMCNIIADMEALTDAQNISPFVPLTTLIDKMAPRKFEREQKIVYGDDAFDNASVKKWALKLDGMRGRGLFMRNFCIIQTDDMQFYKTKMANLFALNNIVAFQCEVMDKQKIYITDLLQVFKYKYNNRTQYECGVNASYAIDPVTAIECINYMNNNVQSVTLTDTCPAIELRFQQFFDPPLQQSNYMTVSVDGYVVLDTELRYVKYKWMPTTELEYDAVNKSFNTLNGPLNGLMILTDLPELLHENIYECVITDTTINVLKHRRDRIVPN
UniProt P41452, sequence (P34051 whole entry, chain 4 of 4): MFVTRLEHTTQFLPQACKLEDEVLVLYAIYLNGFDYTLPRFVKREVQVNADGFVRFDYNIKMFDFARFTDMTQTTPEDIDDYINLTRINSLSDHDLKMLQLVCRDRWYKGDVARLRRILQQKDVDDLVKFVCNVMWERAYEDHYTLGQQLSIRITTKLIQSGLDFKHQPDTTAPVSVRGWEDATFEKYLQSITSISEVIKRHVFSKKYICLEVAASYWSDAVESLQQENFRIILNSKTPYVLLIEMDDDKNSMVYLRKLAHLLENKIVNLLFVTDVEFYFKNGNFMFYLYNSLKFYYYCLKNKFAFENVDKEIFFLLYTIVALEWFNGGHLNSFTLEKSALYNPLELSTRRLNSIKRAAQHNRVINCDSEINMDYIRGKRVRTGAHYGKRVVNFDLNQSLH

gamma-32P 5'-triphosphate 150-nt T3 transcript of pBluescript KS
binding signal (% of wild type) [1]: 74 | activity [2]: 0.16 fmol/s/fmol | activity [3]: 0.31 fmol/s/fmol | RNA triphosphatase activity (% of wild type) [4]: 2.5 | binding signal (fraction of wild type) [5]: 0.01 | activity (pmol Pi/pmol per 15 min) [6]: 210
